# Data reported in paper PMC6771244, “VSTM2A suppresses colorectal cancer and antagonizes Wnt signaling receptor LRP6” (Theranostics, 2019).
# T1: recombinant human LRP-6 Fc Chimera Protein (R&D, 1505-LR-025) (human, UniProt O75581 20-1370)
# T1 construct: human LRP6 part of a commercial Fc chimera; also called LRP6 (1505-LR-025); source: bought: R&D
# T1 sequence (looked up): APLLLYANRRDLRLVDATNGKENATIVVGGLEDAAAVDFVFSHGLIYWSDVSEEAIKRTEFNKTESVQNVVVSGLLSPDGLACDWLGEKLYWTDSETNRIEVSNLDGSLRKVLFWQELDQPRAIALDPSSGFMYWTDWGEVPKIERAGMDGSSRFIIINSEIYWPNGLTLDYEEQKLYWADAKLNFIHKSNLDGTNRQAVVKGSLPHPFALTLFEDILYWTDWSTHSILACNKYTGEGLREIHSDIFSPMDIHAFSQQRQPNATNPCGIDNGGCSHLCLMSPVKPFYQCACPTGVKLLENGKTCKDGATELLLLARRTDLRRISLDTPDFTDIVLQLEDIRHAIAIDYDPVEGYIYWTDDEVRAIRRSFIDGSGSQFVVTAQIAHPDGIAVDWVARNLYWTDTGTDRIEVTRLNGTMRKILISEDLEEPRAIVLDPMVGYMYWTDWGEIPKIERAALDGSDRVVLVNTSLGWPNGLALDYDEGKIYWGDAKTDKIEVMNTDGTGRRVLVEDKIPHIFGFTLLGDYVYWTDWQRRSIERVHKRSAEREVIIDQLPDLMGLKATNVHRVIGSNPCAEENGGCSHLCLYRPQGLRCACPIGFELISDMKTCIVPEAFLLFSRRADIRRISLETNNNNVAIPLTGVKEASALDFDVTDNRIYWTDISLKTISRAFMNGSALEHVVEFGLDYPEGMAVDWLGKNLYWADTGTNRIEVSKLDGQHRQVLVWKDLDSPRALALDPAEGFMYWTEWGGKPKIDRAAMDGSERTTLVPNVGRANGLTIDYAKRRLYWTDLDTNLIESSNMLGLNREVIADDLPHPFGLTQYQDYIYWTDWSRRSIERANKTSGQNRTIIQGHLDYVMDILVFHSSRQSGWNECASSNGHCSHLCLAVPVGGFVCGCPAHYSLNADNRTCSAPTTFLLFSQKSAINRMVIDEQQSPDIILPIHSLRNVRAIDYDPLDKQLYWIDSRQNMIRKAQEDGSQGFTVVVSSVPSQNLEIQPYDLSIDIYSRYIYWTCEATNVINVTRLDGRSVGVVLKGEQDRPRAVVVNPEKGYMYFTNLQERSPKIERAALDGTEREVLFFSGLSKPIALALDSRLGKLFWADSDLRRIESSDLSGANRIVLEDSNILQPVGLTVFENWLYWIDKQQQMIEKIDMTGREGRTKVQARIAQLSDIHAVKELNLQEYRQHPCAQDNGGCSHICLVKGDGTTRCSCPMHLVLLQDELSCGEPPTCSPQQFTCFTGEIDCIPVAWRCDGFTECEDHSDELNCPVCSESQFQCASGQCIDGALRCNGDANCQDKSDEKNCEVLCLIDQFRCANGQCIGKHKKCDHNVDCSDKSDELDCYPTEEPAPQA
# B1: Recombinant Human VSTM2A His-tag Protein (R&D, 10037-VT) (ligand, UniProt Q8TAG5 25-236, looked up)
# chain: SQAKFTEFPRNVTATEGQNVEMSCAFQSGSASVYLEIQWWFLRGPEDLDPGAEGAGAQVELLPDRDPDSDGTKISTVKVQGNDISHKLQISKVRKKDEGLYECRVTDANYGELQEHKAQAYLKVNANSHARRMQAFEASPMWLQDMKPRKNVSAAIPSSIHGSANQRTHSTSSPQVVAKIPKQSPQSGARIATSHGLSVLLLVCGFVKGALL
# notes: human VSTM2A, commercial recombinant protein; also called recombinant VSTM2A; VSTM2A pure protein; source: bought: R&D
# Assays:
# DKK1 (Homo sapiens) = DKK1 (Homo sapiens) (UniProt O94907); assay: SPR; conditions: cited from earlier work
# [1] = biological target: T1, recombinant human LRP-6 Fc Chimera …; assay: ELISA; titration ELISA; 5 ug/ml LRP-6 Fc immobilised on the plate at 4 °C for 12 h, blocked with 5% BSA in PBS; VSTM2A His-tag serial dilution (start 100 ug/ml, factor 4) for 2 h at room temperature, in duplicate; interaction fixed by DTSSP; pNPP read at OD405; conditions: both partners purified
# Chain of DKK1 (Homo sapiens) (O94907 32-266): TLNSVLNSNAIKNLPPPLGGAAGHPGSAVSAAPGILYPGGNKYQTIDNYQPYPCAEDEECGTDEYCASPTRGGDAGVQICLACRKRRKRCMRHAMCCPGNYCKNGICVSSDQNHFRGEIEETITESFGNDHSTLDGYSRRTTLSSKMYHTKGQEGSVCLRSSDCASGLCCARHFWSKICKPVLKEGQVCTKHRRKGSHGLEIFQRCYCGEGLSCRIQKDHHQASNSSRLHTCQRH
Molecule,Kd (DKK1 (Homo sapiens)) [nM],Kd [1] [nM]
LRP6 (from UniProt O75581),0.6,–
B1,–,9.19
